The results in this text go back to article PMC8038994, “RNA and DNA G-quadruplexes bind to human dicer and inhibit its activity”.

The target of one data set is T1, hDicer PPC cassette (Homo sapiens, UniProt Q9UPY3 753-1068).
T1 sequence: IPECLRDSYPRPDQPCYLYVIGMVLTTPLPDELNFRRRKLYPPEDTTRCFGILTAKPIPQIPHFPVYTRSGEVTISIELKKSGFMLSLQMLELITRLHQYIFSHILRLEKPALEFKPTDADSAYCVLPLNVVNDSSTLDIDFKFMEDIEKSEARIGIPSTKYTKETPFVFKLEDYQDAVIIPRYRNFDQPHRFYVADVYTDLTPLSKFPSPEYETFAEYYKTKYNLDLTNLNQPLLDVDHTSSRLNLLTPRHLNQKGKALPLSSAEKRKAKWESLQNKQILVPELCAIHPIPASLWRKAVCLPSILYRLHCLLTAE
Kind of data set: EMSA; EMSA: 20 mM Tris-HCl pH 7.4, 100 mM KCl, 30 min on ice; 5% or 10% native PAGE at 4 C in 1x TBE; G-rich oligos folded in 50 mM KCl. Conditions: protein: recombinant, tags: N-terminal 6xHis (pMCSG7), label: 5'-32P.

The target of data set [1] is T2, hDicer (Homo sapiens, UniProt Q9UPY3 1-1922). Kind of data set: EMSA; 100, 250 nM hDicer; EMSA: 20 mM Tris-HCl pH 7.4, 100 mM KCl, 30 min on ice; 5% or 10% native PAGE at 4 C in 1x TBE; G-rich oligos folded in 50 mM KCl. As to conditions: protein: recombinant; label: 5'-32P; G4. Background: Mobility shift assays separate free from complexed probe on a gel.
Data set [2] deals with T2, hDicer. Kind of data set: EMSA; 250 nM hDicer; EMSA: 20 mM Tris-HCl pH 7.4, 100 mM KCl, 30 min on ice; 5% or 10% native PAGE at 4 C in 1x TBE; G-rich oligos folded in 50 mM KCl. As to conditions: protein: recombinant; label: 5'-32P; G4 dimer of bimolecular G-quadruplexes (PDB 2M18).

T2 sequence (Q9UPY3 whole entry): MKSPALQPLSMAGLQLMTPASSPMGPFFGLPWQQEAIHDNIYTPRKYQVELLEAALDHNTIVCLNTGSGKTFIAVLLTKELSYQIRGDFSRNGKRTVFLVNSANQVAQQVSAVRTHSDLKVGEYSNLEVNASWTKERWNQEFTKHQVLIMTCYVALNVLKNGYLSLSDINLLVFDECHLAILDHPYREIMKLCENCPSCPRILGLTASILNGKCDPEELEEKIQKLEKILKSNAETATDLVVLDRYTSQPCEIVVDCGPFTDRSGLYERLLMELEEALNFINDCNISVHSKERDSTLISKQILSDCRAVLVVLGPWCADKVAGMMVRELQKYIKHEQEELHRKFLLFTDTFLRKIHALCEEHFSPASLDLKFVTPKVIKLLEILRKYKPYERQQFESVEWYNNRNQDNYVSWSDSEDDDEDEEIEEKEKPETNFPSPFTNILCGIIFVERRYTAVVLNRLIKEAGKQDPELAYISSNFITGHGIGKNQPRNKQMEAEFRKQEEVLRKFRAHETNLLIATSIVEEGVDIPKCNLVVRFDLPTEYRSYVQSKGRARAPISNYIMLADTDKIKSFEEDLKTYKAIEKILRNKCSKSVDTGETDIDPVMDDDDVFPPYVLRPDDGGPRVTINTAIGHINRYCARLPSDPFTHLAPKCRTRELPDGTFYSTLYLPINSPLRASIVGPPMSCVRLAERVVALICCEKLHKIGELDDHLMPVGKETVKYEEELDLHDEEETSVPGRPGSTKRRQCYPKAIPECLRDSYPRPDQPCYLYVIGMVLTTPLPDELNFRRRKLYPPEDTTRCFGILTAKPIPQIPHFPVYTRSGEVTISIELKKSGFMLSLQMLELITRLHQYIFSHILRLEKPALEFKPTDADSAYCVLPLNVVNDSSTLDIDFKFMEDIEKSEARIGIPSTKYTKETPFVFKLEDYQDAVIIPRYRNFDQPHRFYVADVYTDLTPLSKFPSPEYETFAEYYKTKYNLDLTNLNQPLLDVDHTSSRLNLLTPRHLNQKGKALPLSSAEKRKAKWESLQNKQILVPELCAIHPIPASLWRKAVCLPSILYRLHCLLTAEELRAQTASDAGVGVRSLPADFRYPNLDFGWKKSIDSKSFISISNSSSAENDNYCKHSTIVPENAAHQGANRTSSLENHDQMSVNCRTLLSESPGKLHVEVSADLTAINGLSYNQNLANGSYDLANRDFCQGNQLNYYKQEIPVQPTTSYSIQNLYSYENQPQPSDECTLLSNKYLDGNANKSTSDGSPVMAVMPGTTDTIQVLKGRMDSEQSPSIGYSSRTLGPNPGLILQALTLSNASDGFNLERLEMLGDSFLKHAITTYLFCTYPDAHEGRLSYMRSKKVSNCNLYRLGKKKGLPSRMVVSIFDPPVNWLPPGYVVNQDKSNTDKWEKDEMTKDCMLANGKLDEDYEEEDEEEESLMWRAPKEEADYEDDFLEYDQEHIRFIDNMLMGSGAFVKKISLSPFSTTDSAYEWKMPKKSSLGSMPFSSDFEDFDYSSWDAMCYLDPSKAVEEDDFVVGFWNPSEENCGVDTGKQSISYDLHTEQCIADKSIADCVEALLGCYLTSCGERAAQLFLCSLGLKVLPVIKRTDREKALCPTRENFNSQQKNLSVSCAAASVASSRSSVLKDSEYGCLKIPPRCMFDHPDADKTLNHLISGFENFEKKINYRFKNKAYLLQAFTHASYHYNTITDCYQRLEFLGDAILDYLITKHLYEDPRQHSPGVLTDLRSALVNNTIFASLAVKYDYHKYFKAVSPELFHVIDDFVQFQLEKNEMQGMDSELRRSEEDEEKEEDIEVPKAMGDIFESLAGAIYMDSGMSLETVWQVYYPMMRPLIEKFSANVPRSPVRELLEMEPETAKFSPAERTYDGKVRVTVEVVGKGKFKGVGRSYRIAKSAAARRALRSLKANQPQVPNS

The Kd is the equilibrium constant for the complex coming apart. As for UCGAAGUAUUCCGCGUACGUG (ssRNA) [LIN21], the Kd with hDicer PPC cassette was about 46 nM.

B1: pre-mir-21 (structured_RNA)
RNA: AGCUUAUCAGACUGAUGUUGACUGUUGAAUCUCAUGGCAACACCAGUCGAUGGGCUGU
Consider B1, for which the Kd in the data set with hDicer PPC cassette (hairpin) was about 205 nM.

On to GGAGGUUUUGGAGG (structured_RNA) [QU14], for which the binding result with hDicer [1] was “binds”.

Regarding GGGGUUUUGGGG (structured_RNA) [G4U4G4], the Kd with hDicer PPC cassette (G4) is about 10 nM.

Regarding GGGUUAGGGU (structured_RNA) [TER10], the binding result with hDicer [2] is “binds”.

Consider GGGGTTTTGGGG (structured_DNA) [G4T4G4], for which the Kd with hDicer PPC cassette (G4 bimolecular, 2 strand copies (PDB 1JPQ)) was about 369 nM.
